Columns and labels:
[1] = target: T1, FcγRIIIa extracellular domain with C-terminal His tag (human, UniProt P08637 17-208); assay: SPR (Biacore); ratio of He/Con_3a (FcγRIIIa) to He/Con_2b (FcγRIIb)
T1 construct: extracellular domain; Soluble receptor expressed in FreeStyle293 cells, used as analyte in Biacore; also called FcgRIIIa; 3a; not shown: His tag attached to the C terminus
Method in brief: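 Antigen peptide was immobilized on a CM5 chip by amine coupling or on an SA chip via biotin; test antibody was then captured, FcγR in running buffer injected, and the chip stripped with 10 mM glycine-HCl, pH 1.5, between cycles. Runs used HBS-EP+ at 25 °C.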

[2] = target: T1, FcγRIIIa extracellular domain with …; assay: SPR (Biacore), antibody captured via antigen peptide, FcγR as analyte; binding amount relative to control heterodimerized antibody
Method: (§1) The heterodimerized antibodies He Abs in which one of the H chains was introduced with an alteration were assayed for their binding activities to each activating FcγR and inhibitory FcγR according to the method described in Example 4. […] The activating FcγRs in FIGS. 26, 27, 28, and 29 are FcγRIa, FcγRIIa (R), FcγRIIa (H), and FcγRIIIa, respectively.
(§2) Analysis of interaction between objective antibody and the FcγR was carried out using Biacore T100 (GE Healthcare). HBS-EP+ (GE Healthcare) was used as the running buffer, and the measurement temperature was set to 25° C. Chips produced by immobilizing the antigen peptide by the amine coupling method to a Series S Sencor Chip CM5 (GE Healthcare), or alternatively, chips produced by allowing preliminarily biotinylated antigen peptides to interact with and immobilize onto a Series S Sensor Chip SA (certified) (GE Healthcare) were used. Antibodies of interest were captured onto an antigen peptide-immobilized chip, and allowed to interact to each FcγR diluted with running buffer. To regenerate and repeatedly use the chip, the antibodies captured on the chip were washed off by reacting 10 mM glycine-HCl, pH 1.5.

[3] = target: T2, FcγRIIb extracellular domain with C-terminal His tag (human, UniProt P31994 43-217); assay: as above
T2 construct: extracellular domain; Soluble receptor expressed in FreeStyle293 cells, used as analyte in Biacore; also called FcgRIIb; 2b; not shown: His tag attached to the C terminus
T2 sequence (looked up): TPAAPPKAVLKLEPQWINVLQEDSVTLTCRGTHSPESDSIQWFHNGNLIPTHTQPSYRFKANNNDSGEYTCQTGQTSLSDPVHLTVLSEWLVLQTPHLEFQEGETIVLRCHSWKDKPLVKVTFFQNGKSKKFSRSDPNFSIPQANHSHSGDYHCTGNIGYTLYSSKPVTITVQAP
Method: as §1, §2

T1 sequence (P08637 17-208): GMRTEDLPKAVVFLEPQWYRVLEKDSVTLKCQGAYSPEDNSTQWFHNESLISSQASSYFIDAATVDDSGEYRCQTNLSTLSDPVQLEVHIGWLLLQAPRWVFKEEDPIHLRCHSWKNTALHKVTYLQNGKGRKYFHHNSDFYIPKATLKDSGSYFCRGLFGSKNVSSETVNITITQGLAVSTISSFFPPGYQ

B1: GpH7-A5/GpH7-B3 variant K334_13S/GpL16-k0 (heterodimerized antibody, He Ab) (antibody, human IgG1, kappa)
heavy 1: not shown
heavy 2: not shown
light: DIVMTQSPLSLPVTPGEPASISCQASESLVHSNRNTYLHWYLQKPGQSPQLLIYKVSNRFSGVPDRFSGSGSGTDFTLKISRVEAEDVGVYYCSQNTHVPPTFGQGTKVEIERTVAAPSVFIFPPSDEQLKSGTASVVCLLNNFYPREAKVQWKVDNALQSGNSQESVTEQDSKDSTYSLSSTLTLSKADYEKHKVYACEVTHQGLSSPVTKSFNRGEC
notes: Anti-glypican-3 IgG1 heterodimerized antibody; the alteration stands only in the GpH7-B3 chain; Positions in EU numbering; also called K334S
For B1, which “IIIa/IIb (He_3a/2b)” value [1] is on record?
Its value is 1.31 ratio.

What about the “He/Con_3a (IIIa binding)” value [2] of the same binder?
The value was 145 relative binding, GpH7-A5/GpH7-B3/GpL16-k0 = 100.

And the “He/Con_2b (IIb binding)” value [3]?
The value was 111 relative binding, GpH7-A5/GpH7-B3/GpL16-k0 = 100.

B2: GpH7-A5/GpH7-B3 variant K334_19Q/GpL16-k0 (heterodimerized antibody, He Ab) (antibody, human IgG1, kappa)
heavy 1: not shown
heavy 2: not shown
light: DIVMTQSPLSLPVTPGEPASISCQASESLVHSNRNTYLHWYLQKPGQSPQLLIYKVSNRFSGVPDRFSGSGSGTDFTLKISRVEAEDVGVYYCSQNTHVPPTFGQGTKVEIERTVAAPSVFIFPPSDEQLKSGTASVVCLLNNFYPREAKVQWKVDNALQSGNSQESVTEQDSKDSTYSLSSTLTLSKADYEKHKVYACEVTHQGLSSPVTKSFNRGEC
notes: Anti-glypican-3 IgG1 heterodimerized antibody; the alteration stands only in the GpH7-B3 chain; Positions in EU numbering; also called K334Q
For B2, which “IIIa/IIb (He_3a/2b)” value [1] is on record?
Its value is 1.25 ratio.

And the “He/Con_3a (IIIa binding)” value [2]?
Its value is 136 relative binding, GpH7-A5/GpH7-B3/GpL16-k0 = 100.

What about the “He/Con_2b (IIb binding)” value [3] of the same binder?
The value was 109 relative binding, GpH7-A5/GpH7-B3/GpL16-k0 = 100.

B3: GpH7-A5/GpH7-B3 variant I336_10E/GpL16-k0 (heterodimerized antibody, He Ab) (antibody, human IgG1, kappa)
heavy 1: not shown
heavy 2: not shown
light: DIVMTQSPLSLPVTPGEPASISCQASESLVHSNRNTYLHWYLQKPGQSPQLLIYKVSNRFSGVPDRFSGSGSGTDFTLKISRVEAEDVGVYYCSQNTHVPPTFGQGTKVEIERTVAAPSVFIFPPSDEQLKSGTASVVCLLNNFYPREAKVQWKVDNALQSGNSQESVTEQDSKDSTYSLSSTLTLSKADYEKHKVYACEVTHQGLSSPVTKSFNRGEC
notes: Anti-glypican-3 IgG1 heterodimerized antibody; the alteration stands only in the GpH7-B3 chain; Positions in EU numbering; also called I336E
What does the source list for B3?
IIIa/IIb (He_3a/2b) [1]: 1.33 ratio; He/Con_3a (IIIa binding) [2]: 119 relative binding, GpH7-A5/GpH7-B3/GpL16-k0 = 100; He/Con_2b (IIb binding) [3]: 89.8 relative binding, GpH7-A5/GpH7-B3/GpL16-k0 = 100

B4: GpH7-A5/GpH7-B3 variant I336_13S/GpL16-k0 (heterodimerized antibody, He Ab) (antibody, human IgG1, kappa)
heavy 1: not shown
heavy 2: not shown
light: DIVMTQSPLSLPVTPGEPASISCQASESLVHSNRNTYLHWYLQKPGQSPQLLIYKVSNRFSGVPDRFSGSGSGTDFTLKISRVEAEDVGVYYCSQNTHVPPTFGQGTKVEIERTVAAPSVFIFPPSDEQLKSGTASVVCLLNNFYPREAKVQWKVDNALQSGNSQESVTEQDSKDSTYSLSSTLTLSKADYEKHKVYACEVTHQGLSSPVTKSFNRGEC
notes: Anti-glypican-3 IgG1 heterodimerized antibody; the alteration stands only in the GpH7-B3 chain; Positions in EU numbering; also called I336S
B4 was tested. Which “IIIa/IIb (He_3a/2b)” value [1] did it give?
Its value is 1.21 ratio.

And the “He/Con_3a (IIIa binding)” value [2]?
The value was 102 relative binding, GpH7-A5/GpH7-B3/GpL16-k0 = 100.

What about the “He/Con_2b (IIb binding)” value [3] of the same binder?
The value was 83.7 relative binding, GpH7-A5/GpH7-B3/GpL16-k0 = 100.

B5: GpH7-A5/GpH7-B3 variant K334_10E/GpL16-k0 (heterodimerized antibody, He Ab) (antibody, human IgG1, kappa)
heavy 1: not shown
heavy 2: not shown
light: DIVMTQSPLSLPVTPGEPASISCQASESLVHSNRNTYLHWYLQKPGQSPQLLIYKVSNRFSGVPDRFSGSGSGTDFTLKISRVEAEDVGVYYCSQNTHVPPTFGQGTKVEIERTVAAPSVFIFPPSDEQLKSGTASVVCLLNNFYPREAKVQWKVDNALQSGNSQESVTEQDSKDSTYSLSSTLTLSKADYEKHKVYACEVTHQGLSSPVTKSFNRGEC
notes: Anti-glypican-3 IgG1 heterodimerized antibody; the alteration stands only in the GpH7-B3 chain (K439E); GpH7-A5 carries D356K/H435R; Positions in EU numbering; also called K334E
How did the “IIIa/IIb (He_3a/2b)” value [1] turn out when B5 was run?
The value was 1.58 ratio.

And the “He/Con_3a (IIIa binding)” value [2]?
Its value is 181 relative binding, GpH7-A5/GpH7-B3/GpL16-k0 = 100.

What about the “He/Con_2b (IIb binding)” value [3] of the same binder?
The value was 114 relative binding, GpH7-A5/GpH7-B3/GpL16-k0 = 100.

B6: GpH7-A5/GpH7-B3 variant I336_14T/GpL16-k0 (heterodimerized antibody, He Ab) (antibody, human IgG1, kappa)
heavy 1: not shown
heavy 2: not shown
light: DIVMTQSPLSLPVTPGEPASISCQASESLVHSNRNTYLHWYLQKPGQSPQLLIYKVSNRFSGVPDRFSGSGSGTDFTLKISRVEAEDVGVYYCSQNTHVPPTFGQGTKVEIERTVAAPSVFIFPPSDEQLKSGTASVVCLLNNFYPREAKVQWKVDNALQSGNSQESVTEQDSKDSTYSLSSTLTLSKADYEKHKVYACEVTHQGLSSPVTKSFNRGEC
notes: Anti-glypican-3 IgG1 heterodimerized antibody; the alteration stands only in the GpH7-B3 chain; Positions in EU numbering; also called I336T
What does the source list for B6?
IIIa/IIb (He_3a/2b) [1]: 1.21 ratio; He/Con_3a (IIIa binding) [2]: 108 relative binding, GpH7-A5/GpH7-B3/GpL16-k0 = 100; He/Con_2b (IIb binding) [3]: 89.5 relative binding, GpH7-A5/GpH7-B3/GpL16-k0 = 100

B7: GpH7-A5/GpH7-B3 variant K334_14T/GpL16-k0 (heterodimerized antibody, He Ab) (antibody, human IgG1, kappa)
heavy 1: not shown
heavy 2: not shown
light: DIVMTQSPLSLPVTPGEPASISCQASESLVHSNRNTYLHWYLQKPGQSPQLLIYKVSNRFSGVPDRFSGSGSGTDFTLKISRVEAEDVGVYYCSQNTHVPPTFGQGTKVEIERTVAAPSVFIFPPSDEQLKSGTASVVCLLNNFYPREAKVQWKVDNALQSGNSQESVTEQDSKDSTYSLSSTLTLSKADYEKHKVYACEVTHQGLSSPVTKSFNRGEC
notes: Anti-glypican-3 IgG1 heterodimerized antibody; the alteration stands only in the GpH7-B3 chain; Positions in EU numbering; also called K334T
With B7 as the binder, how does the “IIIa/IIb (He_3a/2b)” value [1] read?
Its value is 1.23 ratio.

And the “He/Con_3a (IIIa binding)” value [2]?
The value was 141 relative binding, GpH7-A5/GpH7-B3/GpL16-k0 = 100.

And the “He/Con_2b (IIb binding)” value [3]?
Its value is 115 relative binding, GpH7-A5/GpH7-B3/GpL16-k0 = 100.

B8: GpH7-A5/GpH7-B3 variant I336_19Q/GpL16-k0 (heterodimerized antibody, He Ab) (antibody, human IgG1, kappa)
heavy 1: not shown
heavy 2: not shown
light: DIVMTQSPLSLPVTPGEPASISCQASESLVHSNRNTYLHWYLQKPGQSPQLLIYKVSNRFSGVPDRFSGSGSGTDFTLKISRVEAEDVGVYYCSQNTHVPPTFGQGTKVEIERTVAAPSVFIFPPSDEQLKSGTASVVCLLNNFYPREAKVQWKVDNALQSGNSQESVTEQDSKDSTYSLSSTLTLSKADYEKHKVYACEVTHQGLSSPVTKSFNRGEC
notes: Anti-glypican-3 IgG1 heterodimerized antibody; the alteration stands only in the GpH7-B3 chain; Positions in EU numbering; also called I336Q
For B8, which “IIIa/IIb (He_3a/2b)” value [1] is on record?
Its value is 1.59 ratio.

What about the “He/Con_3a (IIIa binding)” value [2] of the same binder?
The value was 92.5 relative binding, GpH7-A5/GpH7-B3/GpL16-k0 = 100.

And the “He/Con_2b (IIb binding)” value [3]?
Its value is 58.2 relative binding, GpH7-A5/GpH7-B3/GpL16-k0 = 100.
